{
  "source": "patent US11453711B2",
  "about": "“Fusion proteins of GLP-1 and GDF15 and conjugates thereof” (BEIJING QL BIOPHARMACEUTICAL CO., LTD., priority 2019, dated 2022)",
  "molecules": {"B1": {"name": "MLC093: fusion polypeptide SEQ ID NO: 381 conjugated with Moiety B at 33C of Linker (conjugate)", "chain": "HGEGTFTSDVSSYLEEQAAKEFIAWLVRGGGGAQPGAQPGAQPGAQPGAQPGAQPGAQPGAQPCQEPGAQPGQEPGAQPGQEPGAQPGQEPGAQPGQEPGAQPGQEPGAQPARQGDHCPLGPGRCCRLHTVRASLEDLGWADWVLSPREVQVTMCIGACPSQFRAANLHAQIKTSLHRLKPDTVPAPCCVPASYNPMVLIQKTDTGVSLQTYDDLLAKDCHCI", "modifications": "Moiety B conjugated at linker Cys33"}},
  "key": {"[1]": {"assay": "Efficacy in spontaneously obese cynomolgus monkeys, sc every three days for 49 days", "format": "in vivo", "conditions": "obese monkeys, 1, 3 and 10 nmol/kg sc every three days", "experimental": "FIGS. 10A-10B show In vivo efficacy in obese monkey. Naïve male spontaneously obese cynomolgus monkeys were injected every three days subcutaneously with designated protein MLC093 with different concentrations for 49 days.\nNaïve male spontaneously obese cynomolgus monkeys with BMI>40 kg/m^2 were injected every three days subcutaneously with designated protein MLC093 for 49 days. Body weight was measured once a week and food intake was measured daily for each monkey. Six animals were used for vehicle or MLC093 1 nmol/kg treamment group and seven animals were used for MLC093 3 nmol/kg or MLC093 10 nmol/kg treamment group. Day 1 and Day 49 are first day and last day of molecule dosage. % BW loss=100*(BW on Day n-BW on Day 1)/(BW on Day 1). Cumulative food intake on Day n represents sum of food intake from Day 1 to Day n. Data are indicated as mean values and standard error (SEM) or pooled values."}, "[2]": {"assay": "Efficacy in db/db mice: body weight, food intake, glucose, biomarkers, daily sc 14 days", "format": "in vivo", "experimental": "(§1) FIGS. 4A-4D show In vivo efficacy in db/db mice. To evaluate the body weight, food intake and glucose effects of the fusion proteins, 8 week old male db/db mice were dosed everyday subcutaneously with 30 nmol/kg protein for 14 days. […] Compared to Vehicle control: ***, p<0.001. Data are expressed as mean values and standard error (SEM) for FIGS. 4A, 4B and 4D. n=5 for each treatment group. For FIG. 4C, a pooled food intake was measured for each treatment group.\nFIGS. 5A-5F show In vivo efficacy in db/db mice. To evaluate the body weight, food intake and glucose effects of the fusion proteins, 8 week old male db/db mice were dosed everyday subcutaneously with different concentrations of proteins for 14 days. FIGS. 5A and 5B show body weight loss upon protein treatments from Day1 to Day15. […] Compared to Vehicle control: ***, p<0.001; **, p<0.01; *, p<0.05; ns, non-statistically significant; FIGS. 5D and 5E show cumulative food intake with protein treatments from Day1 to Day15. […] Compared to Vehicle control: ***, p<0.001**, p<0.01; *, p<0.05; ns, non-statistically significant. Data are expressed as mean values and standard error (SEM) for FIGS. 5A, 5B, 5C and 5F. n=5 for each treatment group. For FIGS. 5D and 5E, a pooled food intake was measured for each treatment group.\nas §1, with “8A-8I” for “4A-4D”, “different concentrations of proteins” for “30 nmol/kg protein”, “FIGS. 8D-8F show body weight loss upon dose titrations of fusion protein conjugates. […]” for “Compared to Vehicle control: ***, p<0.001.”, “8A” for “4A, 4B”, “8C-I.” for “4D.”, “8B,” for “4C,”\nSelected fusion protein conjugates are assessed in disease animal models (DIO mice, db/db mice, etc.) to determine body weight, food intake, glucose efficacy with dose responses. Some biomarkers are also measured, including fasting insulin, plasma triglyceride, cholesterol, liver triglyceride, and inflammatory biomarkers (ALT, AST and CRP).\n8 week old male db/db mice were injected everyday subcutaneously with designated proteins for 14 days. Age matched lean mice were used as control. Food intake and body weight were measured daily and five animals were used for each treatment group. Fasting glucose were tested on designated days as shown in each figure. Body weight was monitored for each individual animal, but food intake for each group animals was measured together. Day 1 and Day 14 are first day and last day of molecule dosage. % BW loss=100*(BW on Day n-BW on Day 1)/(BW on Day 1). Cumulative food intake on Day n represents sum of food intake from Day 1 to Day n. Terminal blood was collected and EDTA-2K plasma was prepared and frozen at −80° C. for biomarker measurement. Liver was also collected and frozen in liquid nitrogen and store at −80° C. Data are indicated as mean values and standard error (SEM) or pooled values. Statistical analysis was performed by One-way ANOVA."}, "[3]": {"assay": "PK study in non-human primates, single sc dose 5 nmol/kg, plasma ELISA", "conditions": "monkey, single sc dose 5 nmol/kg", "description": "Plasma samples were collected pre-dose (−5 min), 2 hr, 4 hr, 6 hr, 8 hr, 24 hr, 48 hr, 72 hr, 96 hr, 120 hr, 144 hr, 216 hr, 288 hr, 360 hr, 432 hr and 504 hr after the injection. The concentrations of the fusion protein conjugates in the plasma were measured by an ELISA assay which has immunoreactivity towards both GDF15 and intact N-terminal of GLP-1. Based on the graph showing plasma concentration of each protein versus time after subcutaneous injection, the pharmacokinetic parameters (including Tmax, Cmax, T1/2, AUC) were calculated by WinNonlin software."}, "[4]": {"assay": "Pharmacokinetic measurement in mouse, single sc dose 30 nmol/kg, plasma ELISA"}, "[5]": {"conditions": "30 nmol/kg, FIG. 8A-C, versus Semaglutide, Tirzepatide and MLC014"}},
  "data": [
    {"molecule": "B1", "values": [
      {"measurement": "body weight loss", "setting": "[1]", "value": "good efficacy on body weight loss and food intake suppression"},
      {"measurement": "food intake suppression", "setting": "[1]", "value": "good efficacy on body weight loss and food intake suppression"},
      {"measurement": "body weight loss", "setting": "[2]; [5]", "value": "more body weight loss, food intake suppression and glycemic control"},
      {"measurement": "food intake suppression", "setting": "[2]; [5]", "value": "more body weight loss, food intake suppression and glycemic control"},
      {"measurement": "glycemic control", "setting": "[2]; [5]", "value": "more body weight loss, food intake suppression and glycemic control"},
      {"measurement": "liver triglyceride content", "setting": "[2]; Day 15, FIG. 8I", "value": "a trend in reducing liver triglyceride content"},
      {"measurement": "efficacy", "setting": "[2]; FIG. 8 study", "value": "better efficacy than Semaglutide and GDF15 derivative (MLC014)"},
      {"measurement": "plasma triglyceride concentration", "setting": "[2]; terminal plasma Day 15, FIG. 8G", "value": "induced the reduction"},
      {"measurement": "plasma ALT concentration", "setting": "[2]; terminal plasma Day 15, FIG. 8H", "value": "induced the reduction"},
      {"measurement": "AUC0-96 h", "setting": "[3]", "value": 3.843, "unit": "µM·h"},
      {"measurement": "Terminal t1/2", "setting": "[3]", "value": 41, "unit": "h"},
      {"measurement": "Tmax", "setting": "[3]", "value": 16, "unit": "h"},
      {"measurement": "Cmax", "setting": "[3]; read-out: Cmax (nmol/L)", "value": 56.2, "unit": "nmol/L"},
      {"measurement": "Cmax", "setting": "[4]; read-out: Cmax (nmol/L), single sc dose 30 nmol/kg", "value": 120, "unit": "nmol/L"},
      {"measurement": "AUC0-24 h", "setting": "[4]; single sc dose 30 nmol/kg", "value": 2.1637, "unit": "µM·h"},
      {"measurement": "Terminal t1/2", "setting": "[4]; single sc dose 30 nmol/kg", "value": 15.9, "unit": "h"},
      {"measurement": "Tmax", "setting": "[4]; single sc dose 30 nmol/kg", "value": 16.0, "unit": "h"}
    ]}
  ]
}
